Assay [1] deals with human Trop-2 (on the surface of human cell lines) (human) (UniProt P09758). The experiment in a line: flow cytometry, PC-3 cells, isotype control at 3 ug/mL (background). (In general: A flow cytometer gives signals particle by particle.)
Assay [2] shares this target. The assay is described as follows: flow cytometry, HCC38 cells, isotype control at 3 ug/mL (background).
Assay [3] shares this target. The experiment in a line: flow cytometry, HUVEC cells, isotype control at 3 ug/mL (background).
The target is the same in assay [4]. The assay is described as follows: flow cytometry, Capan-1 cells, isotype control at 3 ug/mL (background).
The target is the same in assay [5]. The assay is described as follows: flow cytometry, HCC1806 cells, isotype control at 3 ug/mL (background).
The target is the same in assay [6]. The assay is described as follows: flow cytometry, OVCAR-3 cells, isotype control at 3 ug/mL (background).
For assay [7] the target is unchanged. The experiment in a line: flow cytometry, NCI-H322 cells, isotype control at 3 ug/mL (background).
Assay [8] concerns the target T1, human Trop-2 (on the surface of human cell lines) (human, UniProt P09758 27-323).
T1 sequence: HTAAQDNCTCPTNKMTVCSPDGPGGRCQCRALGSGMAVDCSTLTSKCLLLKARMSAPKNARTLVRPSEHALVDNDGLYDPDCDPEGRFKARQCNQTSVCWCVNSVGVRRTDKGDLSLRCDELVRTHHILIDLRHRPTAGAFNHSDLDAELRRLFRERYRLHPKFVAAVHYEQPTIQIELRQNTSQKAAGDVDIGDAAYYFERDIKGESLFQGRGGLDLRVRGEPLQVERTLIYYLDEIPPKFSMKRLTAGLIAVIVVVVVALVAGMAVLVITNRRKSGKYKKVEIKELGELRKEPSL
The experiment in a line: cell-based or functional assay.

Assay [9] deals with T1, human Trop-2 (on the surface of human …). The experiment in a line: cell-based or functional assay. This is another data set of the same source.
Assay [10] has the same target. The assay is described as follows: flow cytometry, HCC38 cells. The method, boiled down:
(§1)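 Trop-2-expressing tumour cells incubated with test antibodies (0.006–100 nM) for 1 h at 4 °C in the dark, then with Alexa Fluor 488 anti-human IgG for 40 min at 4 °C. Binding EC50 derived from geometric mean fluorescence intensity.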

Assay [11] has the same target. The assay is described as follows: flow cytometry, HCC1806 cells. The method, boiled down:
as §1

Assay [12] has the same target. The experiment in a line: flow cytometry, OVCAR-3 cells. How it is done: Tumor cells expressing Trop-2 were prepared into a cell suspension (0.5-1×10⁶ cells/mL) using the FACS buffer (Miltenyi Biotec, 130-091-221), and the cell suspension was added to a 96-well V-bottom plate at 100 μL/well. After centrifugation and removal of the supernatant, the test antibodies diluted with the FACS buffer to different concentrations (0.006 nM-100 nM) were each added at 50 μL/well. The mixture was incubated in the dark in a 4° C. refrigerator for 1 h. The plate was then washed 3 times with the FACS buffer by centrifugation at 300 g, and Alexa Fluor 488 goat anti-human IgG (H+L) (Bio-legend, 409304, 1:500 dilution) at working concentration was added. The mixture was incubated in the dark in a 4° C. refrigerator for 40 min. The plate was then washed 3 times with the FACS buffer by centrifugation at 300 g, the geometric mean fluorescence intensity (MFI) was measured on a Sartorius iQue3 flow cytometer, and the binding EC₅₀ values of the antibodies for tumor cells with different Trop-2 expression levels were calculated

The target of assay [13] is T2, human Trop-2-His (human, UniProt P09758 27-274, limits assumed).
T2 construct: by analogy with the macaque construct it is probably the extracellular domain with a His tag; also called Trop-2-His protein
T2 sequence: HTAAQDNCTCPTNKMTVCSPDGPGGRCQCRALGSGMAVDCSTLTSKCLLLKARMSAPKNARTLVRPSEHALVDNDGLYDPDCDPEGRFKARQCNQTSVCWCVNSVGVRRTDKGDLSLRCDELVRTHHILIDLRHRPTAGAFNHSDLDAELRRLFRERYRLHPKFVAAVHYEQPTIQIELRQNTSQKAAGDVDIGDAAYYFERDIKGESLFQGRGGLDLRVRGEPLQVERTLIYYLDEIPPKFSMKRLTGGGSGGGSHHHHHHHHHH
The experiment in a line: ELISA, plate-coated human Trop-2-His.

The next assay has as its target T3, Macaque Trop-2-His (macaque, UniProt P09758 27-274 (human entry)).
T3 construct: Extracellular domain of macaque Trop-2 recombinantly linked to His; also called monkey Trop-2-His protein; monkey Trop-2
T3 chain: T2 sequence with M36V, S67N, I204V
The experiment in a line: ELISA, plate-coated macaque Trop-2-His. Summed up: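 Plates coated with macaque Trop-2-His were blocked with 2% BSA, then incubated with serially diluted antibodies for 1 h at 37 °C. Bound antibody was detected with HRP goat anti-human IgG (1:5000) and TMB, read at 450 nm, and EC50 values were obtained from fitted binding curves.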
Background: ELISA stands for enzyme-linked immunosorbent assay.

In assay [14] the target is T2, human Trop-2-His. The assay is described as follows: SPR (Biacore 8K), antibody captured, Trop-2-His as analyte. The method, boiled down:
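Antibody captured on anti-human IgG-coated CM5 chip; human Trop-2-His flowed as analyte with real-time association/dissociation recording, 3M MgCl₂ regeneration. Double-subtracted curves fit to Langmuir 1:1 model giving ka, kd and KD.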
On the technique in general: SPR reads the build-up and loss of mass on a sensor chip optically.

Residue numbers refer to the chain shown, from its start.

For human IgG1 control antibody, the MFI in assay [1] is 8920; in [2], 32400; in [3], 20500; in assay [4] it was 65600; in assay [5] it was 16200; in [6] it was 11800. The same molecule had an MFI in [7] of 21300.

B1: hz-Ab35-2.1 (antibody, human IgG1, kappa, V domains shown)
VH: QVQLVQSGAEVKKPGASVKVSCKASGYTFTSSDINWVRQRPGQGLEWMGWIYPRDGSKKYAQKFQGRVTMTVDTSTSTVYMELSSLRSEDTAVYYCATRFATVVSNYGLDPWGQGTLVTVSS
VL: EIVLTQSPATLSLSPGERATLSCSASSSVNYIYWYQRKPGQAPRLLIYDTSNLASGIPARFSGSGSGTDYTLTISSLEPEDFAVYYCQQWNSYPLTFGQGTKVEIKR
notes: Humanized antibody
What is called EC50 is the concentration needed to bring the measured effect to its halfway point. In general, Kd refers to the equilibrium constant for the complex coming apart. Higher therefore signals lower affinity. What is called koff is the first-order rate constant of dissociation. A lower koff goes with a long-lived complex. By kon is commonly meant a measure of how fast the partners come together. Regarding B1, in [8], the “ADCC reporter (Jurkat-CD16a v158-NFAT-luciferase), target cell H322, EC50” value (from here on “ADCC reporter … target cell H322, EC50”) amounted to 100 pM and the “ADCC reporter (Jurkat-CD16a v158-NFAT-luciferase), target cell HCC1806, EC50” value (“ADCC reporter … target cell HCC1806, EC50” for short) turned out to be 230 pM. Also, in assay [9], the “ADCC, PBMC killing (LDH), H322, EC50” value was found to be 20 pM; the “ADCC, PBMC killing (LDH), H322, Maximum killing (%)” value (“ADCC … H322, Maximum killing (%)” below) was found to be 51.3%; the “ADCC, PBMC killing (LDH), HCC1806, EC50” value was 30 pM; the “ADCC, PBMC killing (LDH), HCC1806, Maximum killing (%)” value (from here on “ADCC … HCC1806, Maximum killing (%)”) was 35.2%. This molecule gave an EC50 in [10] of 890 pM. The EC50 in assay [11] was 760 pM. In addition, the EC50 in assay [12] was 900 pM. Also, the midpoint of the response with human Trop-2-His [13], the EC50, lay at 55 pM. The molecule also gave an EC50 in the assay with Macaque Trop-2-His of 56 pM. In addition, in the assay with human Trop-2-His [14], the affinity, expressed as Kd, was 444 pM; the koff was found to be 0.000194 s⁻¹; the kon is 436000 M⁻¹ s⁻¹.

B2: hz-Ab35-2.2 (antibody, human IgG1, kappa, V domains shown)
VH: B1 VH with A61N, Q62E, Q65K, T98R
VL: B1 VL
notes: Humanized antibody
As to B2, in [8], the “ADCC reporter … target cell H322, EC50” value came to 110 pM and the “ADCC reporter … target cell HCC1806, EC50” value came to 260 pM. Moreover, in assay [9], the “ADCC, PBMC killing (LDH), H322, EC50” value came to 10 pM; the “ADCC … H322, Maximum killing (%)” value was 51.4%; the “ADCC, PBMC killing (LDH), HCC1806, EC50” value was found to be 20 pM; the “ADCC … HCC1806, Maximum killing (%)” value turned out to be 35.9%. In [10], this molecule returned an EC50 of 910 pM. This molecule also had an EC50 in [11] of 580 pM. This molecule showed an EC50 in assay [12] of 880 pM. The molecule also gave an EC50 with human Trop-2-His [13] of 54 pM. Moreover, a half-maximal effect with Macaque Trop-2-His (EC50) was put at 50 pM. In the assay with human Trop-2-His [14], this molecule returned a Kd of 8820 pM, a koff of 0.00357 s⁻¹ and a kon of 405000 M⁻¹ s⁻¹.

B3: hz-Ab35-2.3 (antibody, human IgG1, kappa, V domains shown)
VH: B1 VH with A61N, Q62E, Q65K
VL: B1 VL
notes: Humanized antibody
B3: in assay [8], the “ADCC reporter … target cell H322, EC50” value was 110 pM and the “ADCC reporter … target cell HCC1806, EC50” value was 210 pM. Besides, in assay [9], the “ADCC, PBMC killing (LDH), H322, EC50” value is 20 pM; the “ADCC … H322, Maximum killing (%)” value amounted to 50.3%; the “ADCC, PBMC killing (LDH), HCC1806, EC50” value is 30 pM; the “ADCC … HCC1806, Maximum killing (%)” value worked out at 35.7%. This molecule also returned a concentration giving a half-maximal response (EC50) in [10] of 910 pM. Moreover, the EC50 in [11] is 610 pM. The molecule further displayed an EC50 in assay [12] of 740 pM. In the assay with human Trop-2-His [13], it took 65 pM to reach a half-maximal effect (EC50). The same molecule displayed an EC50 with Macaque Trop-2-His of 31 pM. Also, in the assay with human Trop-2-His [14], the Kd came out at 675 pM, the koff was 0.000281 s⁻¹ and the kon turned out to be 416000 M⁻¹ s⁻¹.

These data come from patent US20250034275A1 (CHIA TAI TIANQING PHARMACEUTICAL GROUP, published 2025).
